Measured values from the DeepSol protein solubility set.

Assay: soluble on expression in E. coli; label from the status in PepcDB or PDB records

Sequence	soluble on expression in E. coli
MTMDLRTGLAALALAAGLALPAAPALAEMSEITIARQPSIGHLPLMIMQERRLIETMAEAEGLGEVKVNYATFAGGSNMNDALLSNTIQFAAGGVPPLILLWSKTAGTSNEVKGVAAMNSMPLLMNVNREDIRSIEDFKPGDKIALPSVKVSVQAMVLQMAAAKIWGDENYGKLDPLTVSMSHPDGLAALLARQEVTAHFTASPAQDMALREPGVHTVLNSFDVMGGPVTFNVVWTTKAFHDDNPKLFDIFRRALAQAVEVVNEDPAEAVQVYLRQAGNATDPELLASILADPQVDYTVEPSGIDKYLDFMRRIGTVKDNGQPWEAMFFE	not soluble
MTNHEQVLTDYLAAFIEELVQAGVKEAIISPGSRSTPLALMMAEHPTLKIYVDVDERSAGFFALGLAKASKRPVVLLCTSGTAAANYFPAVVEANLSQIPLIVLTADRPHELRNVGAPQAMDQLHLYGSHVKDFTDMALPENSDEMLRYAKWHSSRAVDIAMKTPRGPVHLNFPLREPLVPILEPSPFTATGKKHHHVH	not soluble
MTNKLTSLTIAFVGALSSMGAQAHGWVEYPSARQNTCYLDGGFWDNTIPNQACQAAYDESGAFPFVQRNEVAANVPNYQDMAHVQAIVRDGHLCSAGDAAKSGLNLGSLHWQKTAIALDANNQIELIFNATAPHNPSYWQFYLSNENYDPTVPLTWGDLVLIDTAGNVPVGEDKKYRIKITLPADRSDSAVLYTRWQREDAAGEGFYNCSDISFNGSGTTPPKPTDPVEPPQYSDLGYYINQGFGPVESGDTVRFRTFDSTGAETTDISLAITANNTSTWSAELAGQFNQLKNKEWFIGIWHQEMNHYMYDSNNIYANKVFAPTANVSYQLSLIKADITPPVEPPVEPSNPWDKTATYNAGDIVDHNGKAWVAQWWTKGEEPGTTGEWGVWR	not soluble
MTPFSDAAKNNTVKTDGDSVSGRDLPITKISEDRFERSAYSAQLANIICDVAPWGASTVFSLTGQWGSGKTSLVNLIRSEESLSNEKWTIVDFNPWVASDPQSLIEEFYRVIVGTVPDDKTGQKIKTVLQKTFSTIGSIAGGVGGFGVLEALALSKGVDAANAVYKTWKQEQDSWPTLYTRAANHFKDLNKRILIVVDDIDRLHTDELALLMKVIRLLGRFPQVNYLLVYEEESLLTTLARSTAVGGSEDDALRFMEKIVQYPFDVPPLTSFQIEKELSALFDKLFQGVSLSGDPEDFALVKSRMFDVWEKTLVTPRLLHRFAALLTNWTRIYGSGEVNGVDLTILATIRIVFPSVYKRLSRAKEVLLQGLEHHHHHH	not soluble
MTPLQQAQLSPQEEAVFDGDAISGSGLRFSELTRPVNLLVMGMSVLPPDVQNPPTETQNLRYLPQVNSFDGLADVMLMVKFDPETKKIAMLSIPRDTRTRIEGHGVRKINAANVEGGPALTATTVSNLLGGVGIDRYIRINVLGVGKLIDALGGVTVYVPKDMKYQDHSQHLYINLKAGKQHLNGDQVLQLLRFRHDELGDIGRIQRQQMVMRALMDQALNPVTVAQLPKILNVVKDNIDTNLTVEELVALVGFGVRTNRTNMQMLMLPGRFSEPNEYNASYWIPSKNGIAKLMAQHFGLESLSENPVNDPTAVRVAIQDSTGSDRSQLRPLINALEKAGYRNVYVANAWTEPLEVTNIIAQQGDGNSAESIRNALGFGEVRVESTGSLNSDISIQVGKDWLQQKSLLEDSIKFLEHHHHHH	soluble
MTPMKTYDLIVIGTGPGGYHAAIRAAQLGLKVLAVEAGEVGGVCLNVGCIPTKALLHAAETLHHLKVAEGFGLKAKPELDLKKLGGWRDQVVKKLTGGVGTLLKGNGVELLRGFARLVGPKEVEVGGERYGAKSLILATGSEPLELKGFPFGEDVWDSTRALKVEEGLPKRLLVIGGGAVGLELGQVYRRLGAEVTLIEYMPEILPQGDPETAALLRRALEKEGIRVRTKTKAVGYEKKKDGLHVRLEPAEGGEGEEVVVDKVLVAVGRKPRTEGLGLEKAGVKVDERGFIRVNARMETSVPGVYAIGDAARPPLLAHKAMREGLIAAENAAGKDSAFDYQVPSVVYTSPEWAGVGLTEEEAKRAGYKVKVGKFPLAASGRALTLGGAEGMVKVVGDEETDLLLGVFIVGPQAGELIAEAALALEMGATLTDLALTVHPHPTLSESLMEAAEAFHKQAIHILNR	soluble
MTPNRRSTDSYNMLGASFDFDPDFSLLSNKTHKNKNPKPPVKLLPYRHGSNTTSSDSDSYIFNSGSGSSDAETPAPVAPIFISLEDVLLNGQLIDFAIDPSGVKFLEANYPLDSEDQIRKAVFEKFTESTTLFVGLCHSRNGNFIVQKLVELATPAEQRELLRQMIDGGLLAMCKDKFACRVVQLALQKFDHSNVFQLIQELSTFDLAAMCTDQISIHVIQRVVKQLPVDMWTFFVHFLSSGDSLMAVCQDKYGCRLVQQVIDRLAENPKLPCFKFRIQLLHSLMTCIVRNCYRLSSNEFANYVIQYVIKSSGIMEMYRDTIIDKCLLRNLLSMSQDKYASHVIEGAFLFAPPALLHEMMEEIFSGYVKDVESNRDALDILLFHQYGNYVVQQMISICTAALIGKEERELPPAILLLYSGWYEKMKQRVLQHASRLERFSSGKKIIDSVMRHGVPTAAAVNAQAAPSLMELTAQFDAMFPSFLAR	not soluble
MTPYMANTKWVDGSVRSDFPQEKMARLYNLNYTIASQVNPHVVPFMQSDASRYRKDILSWPQRILRRQGKVISLGIMDFTRERLGNVPPVRRLLDHGYGIVGQRYYGDVNIIAPFNLRQYAYMLQNPRPHLFKLLQQQGERATLEHHHHHH	not soluble
MTQEIDIGKYHQLALQKQKEHRKFLATLKKKAPKNLDKIVQEVHTEVFREIDCTKCANCCKILGPLFTESDISRIAKHFRMRLPVFEDMYLRVDEDNDKVFKSMPCPFLGEDNLCFIYDVRPKACREFPHTDRKKIYQINHLTIQNTLICPAVYLFVEKLQERLALEHHHHHH	soluble
MTQGKGTREGGVLADVSALGPGGHAVVVGGGLAGVTTALALADAGVRVTLLEGRPRLGGLAFSFQRGDLTVDNGQHVYLRCCTAYRWFLDRIGGAALAPVQERLDVPVVDLARTEGNRLGRLRRDALPVPLHLGRSLATYPHLSLAERASVGRAALALKGLDLADPSLDTQDFGSWLTAHGQSARAVEALWDLVGVATLNAVAGDASLGLAAMVFKTGLLSDPGAADIGWARVPLGELHDRLARKALDSAGVRTEVRTRVTSVSVNENGGWSVQVPGETLEADAVVLAVPQREAHDLLPDGALDAPENLLRIGTAPILNIHVIYDRKVLGTPFLTALGTPVQWVFDRTEASGLKEGQYLALSQSTAQNDIDEPVAVLRERYLPELERLLPRTRGAEVKDFFVTRERTATFAPAPGVGRLRPGARTKAPGLYLAGAWTATGWPATMESAVRSGVGAAAAALGALGRSRGLLPDFFEEAALEHHHHHH	not soluble
MTQKNESQRQDRVAAWSRHAESELSAYQSAAKLDLQAQKPRDHKLCASLEEAIRRSGLRDGMTVSFHHAFRGGDLTINLVMETIAKMGFKNLTLASSSLSDCHAPLVEHIRNGVVSRIYTSGLRGPLAEEISRGLLAEPVQIHSHGGRVHLVQSGELNIDVAFLGVPSCDEFGNANGYTGKACCGSLGYAMVDADSAKQVVMLTEQLLPYPHNPASIAQDQVDLIVQIEEVGDANKIGAGATRMTTNPRELLIARSAAEVIAHSGYFNEGFSLQTGTGGASLAVTRFLEDKMRSRNIVANFALGGITATMVDLHEKGLIRKLLDVQSFDRNAAQSLARNPNHIEISANQYANWGSKGASVDRLDVVVLSALEVDTHFNVNVLTGSDGVLRGASGGHCDTAVAAALSIIVAPLVRGRIPTLVDNVTTCVTPGSSVDILVTDHGIAVNPARPELAERLKAAGMKVVSIEWLRERAQLLTGQPRPIEFTDRVIAVVRYRDGSVIDVVHQVKE	not soluble
MTQLKPGACWSDNPKKVLEMLSPMNIIAITRSIPENTPNSWFIYWLTKVEEGEVRENIYAISPTKLEILPDLVKKALKLGYDGVYIDGIEALVIENGFKSVAKFLLHIKDIVLAENKFIILTLDPRALKEEEIKIIEKEFKKLELSLEHHHHHH	soluble
MTQLKTQYPSLIIDASFITLAANATVKPQDKTYNTVNLLNRFFLIWLDVASRGLSHHHVLSHPFKDWMTNMLDFPYHHEFIEFLGRWTHILIALPKRHHGQVDTAIPRYLLVTIREKTGIVKLTTVQNTAFTTQSNQLKKQYGQFLLTESNNCCACPGCDRPLILTSGNLAAENYEVSAIEKDKDAEALNLIALCPDGFLTYQADRRKKIVTTLKNVKKILVSAHNSQQAISDMKLDSGIVSVLTSLNKLKCDEYNISYDSKQLTDKISPENNRTLYQLVKNQVIDNYLTIQKIIVNLDKQGKIDYEKIQYQTRSMYKKLKAAKHNNLAIFNTISEKLHLATLQDIYFCQMIVSYFIQKCEVLE	not soluble
MTRPPAGTPYWDAAELPTQPQLHGVVTADVAVVGAGLAGLSCAYHLAERAPGLDIAVVDAEHPAAGASGRGTGLLGPRAGPAVDRAVRRFGPQTARRMHRASERAVRDVLALCARLDVPCGLRTGEQLVATRSSAGLAALARQARACRELGLDVPVLTPAGIRDRVGVPYRAALLHRPAATLDPAALTCALARACADKGVRFYGRSPLLALRPGDLVGPELVLPHGRLYAGQAVLAVNSAAQALDLPVGTVLPLEVYAVATEPLSAPAYEALGGRAGHAVVDAVPMAPYFRLLPDRGLVAGGGTATVPAGVGAPRLQAVRERAWSWLERWLRALHPDLARVRVTHRWSGRIGMTGDDLPVVGPVPGYDDVWYIGGCCGHGLALSVAHGAHVAAALLGEPEPGEPLPWHRSRAPRLPARGPAGPLLRAYVDAMGRIARHTCLEHHHHHH	not soluble
MTRTYAMVGTPCQITAATLMDRYTEDFPVELKLGLFCMENFSYTYLKKLAEEEGIDLADVSELRIEKGRLWFHLNDGSKVSVSLERARAAMRKNCSVCMDFTSEQSDISIGSVGSPEGWSTIIIRTERGHELIEKARKAGYIETKPLTERGIRILEKLASGKKEDNLQEIKRRESVARPVLYWRVMPDEEYLEEVTDYQFDDLRSDVIDVGACVLCGACVASCPEDIVSIKDRKPEVEGTCPEGCNACYVACPRTYVPDSIIGHDSAITPLGEYIEILSARAPMFRGQDGGVVTALLTYALREGIIDGALVVDRDQERPWKPLPVLAEEPQDIVKAAGTKYSACPLLKVLKELEHHHHHH	soluble
MTSKADYLKKYLSPASGDIEKKKKKKNKDKNKPSGLRLIEEDAFLSVDAAKTRDIGSDEEREEIEVLKQSVKKAKVVHGFKQTFAEVDAPKVIKPEPLSPDNSPPRGKRQRHDSDNSPPRPSRKRNDSDNSPPRPSRNRHDSDKDNSPPRRRRHDSDNSPPRPSRKIREESPSARNRRSPPRTRRDRHDSDNSPPRNRSRRDSDNSPPRRRPSSPARRRKDDDLSPPRKSRKIEEPKKIKKEEPDSDTETSGRTLEGKRSGLQSARDLKEESDKLRAKNSKMFEEMDTSVSGRFADTVYRQKQTKKKGKDSEEDQAKKERETKKTEELKEKYKSWNKGVAQIEDRRAQLEEMARVAAEPMARARDDDAMNAHLKEVLHAADPMANMIQKKRRDTAIDRGELVYPSYHGHFVPNRFGIAPGYRWDGVDRSNGFEGKLAKTENTKTANQSEYYKSIAEYE	not soluble
MTSNHAILFPGQGAQRADMGAPIFDIYTKLVAEAEEIAEFSIRDFFRDCPADRFSNTLYVQPALYTVNALYYRRYIDESGALPLFLAGHSLGEFNALHAAGVFDFETGLRLVKKRALLMSESQGGGMAAVLGLNAEEVVKILEENNLFDLTIANINSDLQMVISGPIESIKQAEEIFYDNYAIKYVVLRVSGAFHSTMLNTAAIKFSEYIQGFSFLPPQIPVIANRTACPYTLSSVIKNLSEHINRPVMWRQSVIYMRTHGVERFTEMGETSLLLDMVKNIL	not soluble
MTSPMTSKDSKLTLAEKVWRDHVVSQGEGDQPDLIFIDLQLLHEVTSPQAFDGLRMAGRTLRHPELHLATEDHNVPTEGIHNGSLLEINDLVSRTQVETLRKNCEEFGVRLHAMGDKKQGIVHQVGPQLGATQPGMTIVCGDSHTSTHGAFGAMAFGIGTSEVEHVMATQTLSLKPFKTMAINVTGELQPGVTAKD	not soluble
